Measured values as given in US20140255303A1 (UNIVERSITE JOSEPH FOURIER GRENOBLE 1, published 2014).

Experiments:
[1] = target: T1, murine recombinant VCAM-1 (murine, UniProt P29533 25-698); experiment: SPR, Biacore 3000, recombinant mVCAM-1 immobilised on CM5 chip, 1:1 model
T1 construct: Bought recombinant protein (RnD Systems), immobilised on a CM5 chip for SPR; also called mVCAM-1; murine VCAM-1
T1 sequence (looked up): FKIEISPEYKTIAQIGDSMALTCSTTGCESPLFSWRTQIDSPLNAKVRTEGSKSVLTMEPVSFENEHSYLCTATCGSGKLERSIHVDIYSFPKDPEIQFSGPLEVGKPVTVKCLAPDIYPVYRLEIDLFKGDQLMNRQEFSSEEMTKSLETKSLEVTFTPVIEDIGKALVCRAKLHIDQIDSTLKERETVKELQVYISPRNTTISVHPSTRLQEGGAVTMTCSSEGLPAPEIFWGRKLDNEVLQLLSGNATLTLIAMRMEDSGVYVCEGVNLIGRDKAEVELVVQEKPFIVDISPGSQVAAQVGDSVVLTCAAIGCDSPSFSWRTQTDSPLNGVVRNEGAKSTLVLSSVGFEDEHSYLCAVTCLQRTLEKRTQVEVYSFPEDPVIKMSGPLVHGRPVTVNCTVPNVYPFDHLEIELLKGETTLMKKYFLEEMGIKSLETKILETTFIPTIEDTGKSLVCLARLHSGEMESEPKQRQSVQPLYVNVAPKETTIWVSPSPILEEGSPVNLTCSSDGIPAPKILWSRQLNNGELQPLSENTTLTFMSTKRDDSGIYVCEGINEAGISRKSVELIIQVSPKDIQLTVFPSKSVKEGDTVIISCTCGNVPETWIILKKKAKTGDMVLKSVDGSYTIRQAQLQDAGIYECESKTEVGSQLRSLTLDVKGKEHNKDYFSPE
Experimental: (§1) The affinity of human or murine recombinant VCAM-1 nanobodies was determined by SPR analysis on a Biacore 3000 apparatus. Recombinant mouse ICAM-1 (RnD Systems) was used as a negative control. The recombinant proteins were immobilized on a sensor chip CM5 (Biacore, Uppsala, Sweden) according to the instructions of manufacturer. Serial half-dilutions of the nanodbodies from 50 to 1 nM in PBS with 0.005% Tween-20® were tested. The affinity constants were determined by using adjustment of the standard association model 1:1 (BIAevaluation software package).

[2] = target: T2, rabbit VCAM-1 on transfected CHO cells (rabbit, UniProt A0A5F9DFM7 25-739); experiment: flow cytometry (PE-A) on CHO cells transiently transfected with rabbit VCAM-1; nanobody, then anti-His-tag mAb and anti-mouse IgG1 [Continuation), panel 3B]
T2 construct: whole, on cells
T2 sequence: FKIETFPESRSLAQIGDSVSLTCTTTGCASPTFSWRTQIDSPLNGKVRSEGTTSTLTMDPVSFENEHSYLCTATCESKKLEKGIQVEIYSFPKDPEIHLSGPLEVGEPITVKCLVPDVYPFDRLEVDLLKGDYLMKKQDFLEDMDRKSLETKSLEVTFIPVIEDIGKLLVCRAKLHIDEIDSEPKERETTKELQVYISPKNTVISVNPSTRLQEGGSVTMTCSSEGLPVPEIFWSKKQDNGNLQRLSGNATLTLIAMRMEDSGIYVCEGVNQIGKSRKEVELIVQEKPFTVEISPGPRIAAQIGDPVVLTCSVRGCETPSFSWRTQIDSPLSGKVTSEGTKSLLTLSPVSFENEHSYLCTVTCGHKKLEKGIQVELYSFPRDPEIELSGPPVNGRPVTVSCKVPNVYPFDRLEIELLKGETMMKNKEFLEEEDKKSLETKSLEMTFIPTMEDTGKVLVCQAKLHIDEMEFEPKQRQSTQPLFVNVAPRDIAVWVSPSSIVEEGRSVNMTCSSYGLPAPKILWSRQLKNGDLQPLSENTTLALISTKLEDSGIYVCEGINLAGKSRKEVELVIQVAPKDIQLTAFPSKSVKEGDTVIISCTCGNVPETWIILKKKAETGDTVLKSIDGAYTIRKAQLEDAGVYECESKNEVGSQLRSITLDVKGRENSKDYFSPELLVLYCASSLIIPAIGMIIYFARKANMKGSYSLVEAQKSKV
Experimental: (§2) 10⁵ CHO cells either transiently transfected or not with a plasmid coding for rabbit VCAM-1 were sequentially incubated with 1 μg of nanobodies, 1 μg of anti-His-tag monoclonal antibody (Serotec) and 200 ng of anti-mouse rat IgG₁ (BD Biosciences). The bond was measured on a FACS Canto II analyzer (BD Biosciences, Franklin Lakes, USA) and the data analysed with the FlowJo software package (TreeStar, Ashland, USA). A negative control was made by omitting the nanobody.

human recombinant VCAM-1 = target: T3, human recombinant VCAM-1 (human, UniProt P19320 25-698); experiment: SPR, Biacore 3000, recombinant hVCAM-1 immobilised on CM5 chip, 1:1 model
T3 construct: Bought recombinant protein (RnD Systems), immobilised on a CM5 chip for SPR; also called hVCAM-1; human VCAM-1
T3 sequence (looked up): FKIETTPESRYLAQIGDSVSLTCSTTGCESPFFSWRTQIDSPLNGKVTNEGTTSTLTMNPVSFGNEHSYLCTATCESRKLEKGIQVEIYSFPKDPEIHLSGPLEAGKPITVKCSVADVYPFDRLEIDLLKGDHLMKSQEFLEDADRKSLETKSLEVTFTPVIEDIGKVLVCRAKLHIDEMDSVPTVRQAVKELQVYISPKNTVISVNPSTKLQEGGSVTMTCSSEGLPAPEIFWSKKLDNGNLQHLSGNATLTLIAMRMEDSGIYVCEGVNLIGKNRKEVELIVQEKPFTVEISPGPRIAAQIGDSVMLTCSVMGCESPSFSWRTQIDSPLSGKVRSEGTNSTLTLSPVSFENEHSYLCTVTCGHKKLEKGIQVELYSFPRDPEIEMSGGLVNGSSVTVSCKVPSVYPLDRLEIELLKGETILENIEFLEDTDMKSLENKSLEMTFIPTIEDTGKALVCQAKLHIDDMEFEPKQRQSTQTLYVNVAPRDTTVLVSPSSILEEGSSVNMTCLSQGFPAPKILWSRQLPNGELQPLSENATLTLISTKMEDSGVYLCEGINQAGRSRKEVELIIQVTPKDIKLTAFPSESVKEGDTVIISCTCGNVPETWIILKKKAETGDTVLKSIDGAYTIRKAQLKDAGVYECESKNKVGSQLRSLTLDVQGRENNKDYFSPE
Experimental: as §1

[3] = target: T2, rabbit VCAM-1 on transfected CHO cells; experiment: flow cytometry (PE-A) on CHO cells transiently transfected with rabbit VCAM-1; nanobody, then anti-His-tag mAb and anti-mouse IgG1 [Continuation), panel 8B]
Experimental: as §2

B1: cAbVCAM1-3 (VHH)
VHH: QVQLQESGGGSVQAGGSLRLSCTASGFTYSSYYMSWVRQAPGKGLEWVSGINVDGSNTYYADSVKGRFTISRDNAKNTLYLQMNSLKSEDTALYYCATGSGRDSYDCYSGSWCPKGQGTQVTVSS
notes: Dromedary nanobody produced with a hexahistidine tag in E. coli; also called anti-VCAM-1 nanobody; not shown: hexahistidine tag
In the case of B1, the Kd [1] is reported as 2.4 nM, the binding result [2] is reported as “no binding (tested: 1 µg per 10^5 cells (single amount))” and the Kd (human recombinant VCAM-1) is reported as 9.1 nM.

B2: cAbVCAM1-9 (VHH)
VHH: QVQLQESGGGLVQPGGSLRLSCAASGFTFSSYYMSWVRQAPGKGLEWVSGINVDGSNTYYADSVKGRFTISRDNAKNTLYLQMNSLKSEDTALYYCATGSGRDSYDCYSGSWCPKGQGTQVTVSS
notes: as for B1
Binder B2 has a Kd [1] of 0.9 nM and a Kd (human recombinant VCAM-1) of 5.3 nM.

B3: cAbVCAM1-8 (VHH)
VHH: QVQLQESGGGLVQPGGSLRLSCAASGFTFSNYYMTWVRRAPGKGLEWVSRINSDGSTLYLPSVKGRFTISRDNAKNTLYLQMNSLKSEDTGWYYCVEGKSSVRGQGTQVTVSS
notes: as for B1
For B3, the Kd [1] was 13.2 nM, the binding result [3] was “no binding (tested: 1 µg per 10^5 cells (single amount))” and the Kd (human recombinant VCAM-1) was 1.4 nM.

B4: cAbVCAM1-5 (VHH)
VHH: QVQLQESGGGSVQTGGSLRLSCAASGYTNSIMYMAWFRQAPGKKREGVAAIRFPDDSAYYAGSVKGRFTISHDNAKNTVYLQMNNLNPEDTAMYYCAARSSPYSFAWNDPSNYNYWGQGTQVTVSS
notes: as for B1
With B4 the Kd [1] was 2 nM and the Kd (human recombinant VCAM-1) was 6.5 nM.
